To fix the notation:
B1: library; a variant is named by its letters at N, in order (parent)
chain: GCUGUCACCGAGAAACUGUGAAGUAUAUCUUAAACCUGGGCACUUAAAAGAUAUAUGGAGUUAGUAGUGCAACCUGCUCGGUCUGAUGAGUCCNNNNNNGGACGAAACAGC

Data set [1] covers variants of B1. The experiment in a line: normalized RNA/DNA level without ligand (relative to sTRSVctl = 100) (log10 (% of sTRSVctl)); HEK293T; ligand: cyclic di-GMP (c-di-GMP-II aptamer); higher = less ribozyme self-cleavage, higher mRNA level. As to conditions: reporter: mCherry (pCS4076), ligand present: no. The method in brief: (§1)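 Total RNA, extracted with EDTA 72 h after HEK293T cells were transfected with 4 µg per 6-well well of reporter-linked ribozyme switch library plasmids, was reverse-transcribed, amplified, barcoded and sequenced. Ligand, if used, was added 1 h before transfection. RNA level was derived from RNA reads divided by DNA reads and normalized to a spiked-in non-cleaving sequence or to the top sequences. This was multiplied by 100 and log10-transformed, with the top set of 25 sequences and a ≥100 DNA read minimum.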

Data set [2] covers variants of B1. In words: normalized RNA/DNA level with ligand (relative to sTRSVctl = 100) (log10 (% of sTRSVctl)); HEK293T; ligand: cyclic di-GMP (c-di-GMP-II aptamer); ligand concentration (+) RNA-Seq: 1 mM; higher = less ribozyme self-cleavage, higher mRNA level. To be noted: reporter: mCherry (pCS4076), ligand present: yes. The method in brief: as §1

± gives the standard deviation of the averaged measurements.

Turning to GCUGUCACCGAGAAACUGUGAAGUAUAUCUUAAACCUGGGCACUUAAAAGAUAUAUGGAGUUAGUAGUGCAACCUGCUCGGUCUGAUGAGUCCGACCAGGGACGAAACAGC [GACCAG], the “normalized RNA/DNA level without ligand (log10)” value in data set [1] came to 1.82 ± 0.088. For the same variant, the “normalized RNA/DNA level with ligand (log10)” value in data set [2] is 1.91 ± 0.13.

Regarding GCUGUCACCGAGAAACUGUGAAGUAUAUCUUAAACCUGGGCACUUAAAAGAUAUAUGGAGUUAGUAGUGCAACCUGCUCGGUCUGAUGAGUCCGACCAUGGACGAAACAGC [GACCAU], the “normalized RNA/DNA level without ligand (log10)” value in data set [1] worked out at 1.64 ± 0.022. Further, the “normalized RNA/DNA level with ligand (log10)” value in data set [2] came out at 1.79 ± 0.13.

As for GCUGUCACCGAGAAACUGUGAAGUAUAUCUUAAACCUGGGCACUUAAAAGAUAUAUGGAGUUAGUAGUGCAACCUGCUCGGUCUGAUGAGUCCGACCACGGACGAAACAGC [GACCAC], the “normalized RNA/DNA level without ligand (log10)” value in data set [1] turned out to be 1.69 ± 0.056. For the same variant, the “normalized RNA/DNA level with ligand (log10)” value in data set [2] stood at 1.85 ± 0.12.

As to GCUGUCACCGAGAAACUGUGAAGUAUAUCUUAAACCUGGGCACUUAAAAGAUAUAUGGAGUUAGUAGUGCAACCUGCUCGGUCUGAUGAGUCCUACCGCGGACGAAACAGC [UACCGC], the “normalized RNA/DNA level without ligand (log10)” value in data set [1] worked out at 1.73 ± 0.031. In addition, in data set [2], the “normalized RNA/DNA level with ligand (log10)” value was determined as 1.86 ± 0.14.

Turning to GCUGUCACCGAGAAACUGUGAAGUAUAUCUUAAACCUGGGCACUUAAAAGAUAUAUGGAGUUAGUAGUGCAACCUGCUCGGUCUGAUGAGUCCUACCGAGGACGAAACAGC [UACCGA], the “normalized RNA/DNA level without ligand (log10)” value in data set [1] was determined as 1.56 ± 0.058. In addition, the “normalized RNA/DNA level with ligand (log10)” value in data set [2] is 1.77 ± 0.068.

For the variant GCUGUCACCGAGAAACUGUGAAGUAUAUCUUAAACCUGGGCACUUAAAAGAUAUAUGGAGUUAGUAGUGCAACCUGCUCGGUCUGAUGAGUCCAACCGCGGACGAAACAGC [AACCGC], the “normalized RNA/DNA level without ligand (log10)” value in data set [1] turned out to be 1.718 ± 0.0043. The “normalized RNA/DNA level with ligand (log10)” value in data set [2] worked out at 1.86 ± 0.1.

Turning to GCUGUCACCGAGAAACUGUGAAGUAUAUCUUAAACCUGGGCACUUAAAAGAUAUAUGGAGUUAGUAGUGCAACCUGCUCGGUCUGAUGAGUCCAACCGAGGACGAAACAGC [AACCGA], the “normalized RNA/DNA level without ligand (log10)” value in data set [1] stood at 1.5 ± 0.1. Further, the “normalized RNA/DNA level with ligand (log10)” value in data set [2] amounted to 1.61 ± 0.089.

Take GCUGUCACCGAGAAACUGUGAAGUAUAUCUUAAACCUGGGCACUUAAAAGAUAUAUGGAGUUAGUAGUGCAACCUGCUCGGUCUGAUGAGUCCUACCCCGGACGAAACAGC [UACCCC]: in data set [1], the “normalized RNA/DNA level without ligand (log10)” value stood at 1.7914 ± 0.0016. In addition, the “normalized RNA/DNA level with ligand (log10)” value in data set [2] was determined as 1.89 ± 0.11.

Regarding GCUGUCACCGAGAAACUGUGAAGUAUAUCUUAAACCUGGGCACUUAAAAGAUAUAUGGAGUUAGUAGUGCAACCUGCUCGGUCUGAUGAGUCCUACCCGGGACGAAACAGC [UACCCG], the “normalized RNA/DNA level without ligand (log10)” value in data set [1] came out at 1.766 ± 0.014. Further, the “normalized RNA/DNA level with ligand (log10)” value in data set [2] is 1.9 ± 0.063.

Take GCUGUCACCGAGAAACUGUGAAGUAUAUCUUAAACCUGGGCACUUAAAAGAUAUAUGGAGUUAGUAGUGCAACCUGCUCGGUCUGAUGAGUCCCACCAUGGACGAAACAGC [CACCAU]: in data set [1], the “normalized RNA/DNA level without ligand (log10)” value was found to be 1.593 ± 0.0031. Moreover, the “normalized RNA/DNA level with ligand (log10)” value in data set [2] was determined as 1.75 ± 0.11.

Regarding GCUGUCACCGAGAAACUGUGAAGUAUAUCUUAAACCUGGGCACUUAAAAGAUAUAUGGAGUUAGUAGUGCAACCUGCUCGGUCUGAUGAGUCCCACCAGGGACGAAACAGC [CACCAG], in data set [1], the “normalized RNA/DNA level without ligand (log10)” value came out at 1.74 ± 0.03. The “normalized RNA/DNA level with ligand (log10)” value in data set [2] is 1.88 ± 0.11.

For GCUGUCACCGAGAAACUGUGAAGUAUAUCUUAAACCUGGGCACUUAAAAGAUAUAUGGAGUUAGUAGUGCAACCUGCUCGGUCUGAUGAGUCCCACCACGGACGAAACAGC [CACCAC], the “normalized RNA/DNA level without ligand (log10)” value in data set [1] was 1.675 ± 0.0098. Further, the “normalized RNA/DNA level with ligand (log10)” value in data set [2] worked out at 1.85 ± 0.096.

GCUGUCACCGAGAAACUGUGAAGUAUAUCUUAAACCUGGGCACUUAAAAGAUAUAUGGAGUUAGUAGUGCAACCUGCUCGGUCUGAUGAGUCCAACCCGGGACGAAACAGC [AACCCG]: the “normalized RNA/DNA level without ligand (log10)” value in data set [1] was 1.665 ± 0.014. The “normalized RNA/DNA level with ligand (log10)” value in data set [2] is 1.81 ± 0.06.

On to GCUGUCACCGAGAAACUGUGAAGUAUAUCUUAAACCUGGGCACUUAAAAGAUAUAUGGAGUUAGUAGUGCAACCUGCUCGGUCUGAUGAGUCCAACCCAGGACGAAACAGC [AACCCA], for which the “normalized RNA/DNA level without ligand (log10)” value in data set [1] was 1.621 ± 0.0091. Further, the “normalized RNA/DNA level with ligand (log10)” value in data set [2] was determined as 1.81 ± 0.13.

For the variant GCUGUCACCGAGAAACUGUGAAGUAUAUCUUAAACCUGGGCACUUAAAAGAUAUAUGGAGUUAGUAGUGCAACCUGCUCGGUCUGAUGAGUCCAACCAGGGACGAAACAGC [AACCAG], in data set [1], the “normalized RNA/DNA level without ligand (log10)” value is 1.6 ± 0.035. Further, the “normalized RNA/DNA level with ligand (log10)” value in data set [2] is 1.73 ± 0.13.

GCUGUCACCGAGAAACUGUGAAGUAUAUCUUAAACCUGGGCACUUAAAAGAUAUAUGGAGUUAGUAGUGCAACCUGCUCGGUCUGAUGAGUCCCACCCGGGACGAAACAGC [CACCCG]: the “normalized RNA/DNA level without ligand (log10)” value in data set [1] amounted to 1.81 ± 0.025. In addition, the “normalized RNA/DNA level with ligand (log10)” value in data set [2] stood at 1.94 ± 0.12.

GCUGUCACCGAGAAACUGUGAAGUAUAUCUUAAACCUGGGCACUUAAAAGAUAUAUGGAGUUAGUAGUGCAACCUGCUCGGUCUGAUGAGUCCCACCCAGGACGAAACAGC [CACCCA]: the “normalized RNA/DNA level without ligand (log10)” value in data set [1] was 1.59 ± 0.097. The “normalized RNA/DNA level with ligand (log10)” value in data set [2] was determined as 1.75 ± 0.077.

Take GCUGUCACCGAGAAACUGUGAAGUAUAUCUUAAACCUGGGCACUUAAAAGAUAUAUGGAGUUAGUAGUGCAACCUGCUCGGUCUGAUGAGUCCGACCGCGGACGAAACAGC [GACCGC]: in data set [1], the “normalized RNA/DNA level without ligand (log10)” value came to 1.81 ± 0.036. For the same variant, the “normalized RNA/DNA level with ligand (log10)” value in data set [2] is 1.8 ± 0.083.

Regarding GCUGUCACCGAGAAACUGUGAAGUAUAUCUUAAACCUGGGCACUUAAAAGAUAUAUGGAGUUAGUAGUGCAACCUGCUCGGUCUGAUGAGUCCCACCGCGGACGAAACAGC [CACCGC], the “normalized RNA/DNA level without ligand (log10)” value in data set [1] stood at 1.759 ± 0.015. In data set [2], the “normalized RNA/DNA level with ligand (log10)” value amounted to 1.85 ± 0.13.

In the case of GCUGUCACCGAGAAACUGUGAAGUAUAUCUUAAACCUGGGCACUUAAAAGAUAUAUGGAGUUAGUAGUGCAACCUGCUCGGUCUGAUGAGUCCCACCGAGGACGAAACAGC [CACCGA], the “normalized RNA/DNA level without ligand (log10)” value in data set [1] was found to be 1.6252 ± 0.00013. Further, in data set [2], the “normalized RNA/DNA level with ligand (log10)” value turned out to be 1.8 ± 0.1.

For GCUGUCACCGAGAAACUGUGAAGUAUAUCUUAAACCUGGGCACUUAAAAGAUAUAUGGAGUUAGUAGUGCAACCUGCUCGGUCUGAUGAGUCCUACCAGGGACGAAACAGC [UACCAG], the “normalized RNA/DNA level without ligand (log10)” value in data set [1] came to 1.701 ± 0.003. Also, in data set [2], the “normalized RNA/DNA level with ligand (log10)” value was determined as 1.83 ± 0.11.

GCUGUCACCGAGAAACUGUGAAGUAUAUCUUAAACCUGGGCACUUAAAAGAUAUAUGGAGUUAGUAGUGCAACCUGCUCGGUCUGAUGAGUCCUACCACGGACGAAACAGC [UACCAC]: the “normalized RNA/DNA level without ligand (log10)” value in data set [1] came to 1.698 ± 0.0019. The “normalized RNA/DNA level with ligand (log10)” value in data set [2] was determined as 1.82 ± 0.11.

Consider GCUGUCACCGAGAAACUGUGAAGUAUAUCUUAAACCUGGGCACUUAAAAGAUAUAUGGAGUUAGUAGUGCAACCUGCUCGGUCUGAUGAGUCCGACCCCGGACGAAACAGC [GACCCC], for which the “normalized RNA/DNA level without ligand (log10)” value in data set [1] was 1.8 ± 0.055. Also, in data set [2], the “normalized RNA/DNA level with ligand (log10)” value is 1.88 ± 0.14.

For the variant GCUGUCACCGAGAAACUGUGAAGUAUAUCUUAAACCUGGGCACUUAAAAGAUAUAUGGAGUUAGUAGUGCAACCUGCUCGGUCUGAUGAGUCCGACCCUGGACGAAACAGC [GACCCU], the “normalized RNA/DNA level without ligand (log10)” value in data set [1] is 1.779 ± 0.0057. In data set [2], the “normalized RNA/DNA level with ligand (log10)” value was 1.87 ± 0.089.

Regarding GCUGUCACCGAGAAACUGUGAAGUAUAUCUUAAACCUGGGCACUUAAAAGAUAUAUGGAGUUAGUAGUGCAACCUGCUCGGUCUGAUGAGUCCGACCCAGGACGAAACAGC [GACCCA], the “normalized RNA/DNA level without ligand (log10)” value in data set [1] is 1.75 ± 0.02. Also, in data set [2], the “normalized RNA/DNA level with ligand (log10)” value was determined as 1.85 ± 0.093.

Take GCUGUCACCGAGAAACUGUGAAGUAUAUCUUAAACCUGGGCACUUAAAAGAUAUAUGGAGUUAGUAGUGCAACCUGCUCGGUCUGAUGAGUCCGACCCGGGACGAAACAGC [GACCCG]: the “normalized RNA/DNA level without ligand (log10)” value in data set [1] was 1.7824 ± 0.00091. In addition, the “normalized RNA/DNA level with ligand (log10)” value in data set [2] turned out to be 1.86 ± 0.11.

(Values after the supplement of paper PMC6757056.)
